# According to IntAct's records for PubMed 31695625:
# B1: Solute carrier family 2, facilitated glucose transporter member 9 (Homo sapiens), Q9NRM0-2 (parent)
# chain: MKLSKKDRGEDEESDSAKKKLDWSCSLLVASLAGAFGSSFLYGYNLSVVNAPTPYIKAFYNESWERRHGRPIDPDTLTLLWSVTVSIFAIGGLVGTLIVKMIGKVLGRKHTLLANNGFAISAALLMACSLQAGAFEMLIVGRFIMGIDGGVALSVLPMYLSEISPKEIRGSLGQVTAIFICIGVFTGQLLGLPELLGKESTWPYLFGVIVVPAVVQLLSLPFLPDSPRYLLLEKHNEARAVKAFQTFLGKADVSQEVEEVLAESRVQRSIRLVSVLELLRAPYVRWQVVTVIVTMACYQLCGLNAIWFYTNSIFGKAGIPPAKIPYVTLSTGGIETLAAVFSGLVIEHLGRRPLLIGGFGLMGLFFGTLTITLTLQDHAPWVPYLSIVGILAIIASFCSGPGGIPFILTGEFFQQSQRPAAFIIAGTVNWLSNFAVGLLFPFIQKSLDTYCFLVFATICITGAIYLYFVLPETKNRTYAEISQAFSKRNKAYPPEEKIDSAVTDGKINGRP
# B2: Solute carrier family 2, facilitated glucose transporter member 9 (Homo sapiens), Q9NRM0-1 (parent)
# chain: MARKQNRNSKELGLVPLTDDTSHAGPPGPGRALLECDHLRSGVPGGRRRKDWSCSLLVASLAGAFGSSFLYGYNLSVVNAPTPYIKAFYNESWERRHGRPIDPDTLTLLWSVTVSIFAIGGLVGTLIVKMIGKVLGRKHTLLANNGFAISAALLMACSLQAGAFEMLIVGRFIMGIDGGVALSVLPMYLSEISPKEIRGSLGQVTAIFICIGVFTGQLLGLPELLGKESTWPYLFGVIVVPAVVQLLSLPFLPDSPRYLLLEKHNEARAVKAFQTFLGKADVSQEVEEVLAESRVQRSIRLVSVLELLRAPYVRWQVVTVIVTMACYQLCGLNAIWFYTNSIFGKAGIPPAKIPYVTLSTGGIETLAAVFSGLVIEHLGRRPLLIGGFGLMGLFFGTLTITLTLQDHAPWVPYLSIVGILAIIASFCSGPGGIPFILTGEFFQQSQRPAAFIIAGTVNWLSNFAVGLLFPFIQKSLDTYCFLVFATICITGAIYLYFVLPETKNRTYAEISQAFSKRNKAYPPEEKIDSAVTDGKINGRP
# Variants of: B1
# Details: with itm2b_human ITM2B
row,Variant,effect of a mutation on the interaction
1,MKLSKKDRGEDEESDSAKKKLDWSCSLLVASLAGAFGSSFLYGYNLSVVNAPTPYIKAFYQESWERRHGRPIDPDTLTLLWSVTVSIFAIGGLVGTLIVKMIGKVLGRKHTLLANNGFAISAALLMACSLQAGAFEMLIVGRFIMGIDGGVALSVLPMYLSEISPKEIRGSLGQVTAIFICIGVFTGQLLGLPELLGKESTWPYLFGVIVVPAVVQLLSLPFLPDSPRYLLLEKHNEARAVKAFQTFLGKADVSQEVEEVLAESRVQRSIRLVSVLELLRAPYVRWQVVTVIVTMACYQLCGLNAIWFYTNSIFGKAGIPPAKIPYVTLSTGGIETLAAVFSGLVIEHLGRRPLLIGGFGLMGLFFGTLTITLTLQDHAPWVPYLSIVGILAIIASFCSGPGGIPFILTGEFFQQSQRPAAFIIAGTVNWLSNFAVGLLFPFIQKSLDTYCFLVFATICITGAIYLYFVLPETKNRTYAEISQAFSKRNKAYPPEEKIDSAVTDGKINGRP [N61Q],with no effect

# Variants of: B1
# Details: with itm2b_human ITM2B
# Remark: another data set of the same source
row,Variant,effect of a mutation on the interaction
1,MKLSKKDRGEDEESDSAKKKLDWSCSLLVASLAGAFGSSFLYGYNLSVVNAPTPYIKAFYQESWERRHGRPIDPDTLTLLWSVTVSIFAIGGLVGTLIVKMIGKVLGRKHTLLANNGFAISAALLMACSLQAGAFEMLIVGRFIMGIDGGVALSVLPMYLSEISPKEIRGSLGQVTAIFICIGVFTGQLLGLPELLGKESTWPYLFGVIVVPAVVQLLSLPFLPDSPRYLLLEKHNEARAVKAFQTFLGKADVSQEVEEVLAESRVQRSIRLVSVLELLRAPYVRWQVVTVIVTMACYQLCGLNAIWFYTNSIFGKAGIPPAKIPYVTLSTGGIETLAAVFSGLVIEHLGRRPLLIGGFGLMGLFFGTLTITLTLQDHAPWVPYLSIVGILAIIASFCSGPGGIPFILTGEFFQQSQRPAAFIIAGTVNWLSNFAVGLLFPFIQKSLDTYCFLVFATICITGAIYLYFVLPETKNRTYAEISQAFSKRNKAYPPEEKIDSAVTDGKINGRP [N61Q],disrupting interaction strength

# Variants of: B2
# Details: with itm2b_human ITM2B
row,Variant,effect of a mutation on the interaction
1,MARKQNRNSKELGLVPLTDDTSHAGPPGPGRALLECDHLRSGVPGGRRRKDWSCSLLVASLAGAFGSSFLYGYNLSVVNAPTPYIKAFYQESWERRHGRPIDPDTLTLLWSVTVSIFAIGGLVGTLIVKMIGKVLGRKHTLLANNGFAISAALLMACSLQAGAFEMLIVGRFIMGIDGGVALSVLPMYLSEISPKEIRGSLGQVTAIFICIGVFTGQLLGLPELLGKESTWPYLFGVIVVPAVVQLLSLPFLPDSPRYLLLEKHNEARAVKAFQTFLGKADVSQEVEEVLAESRVQRSIRLVSVLELLRAPYVRWQVVTVIVTMACYQLCGLNAIWFYTNSIFGKAGIPPAKIPYVTLSTGGIETLAAVFSGLVIEHLGRRPLLIGGFGLMGLFFGTLTITLTLQDHAPWVPYLSIVGILAIIASFCSGPGGIPFILTGEFFQQSQRPAAFIIAGTVNWLSNFAVGLLFPFIQKSLDTYCFLVFATICITGAIYLYFVLPETKNRTYAEISQAFSKRNKAYPPEEKIDSAVTDGKINGRP [N90Q],with no effect
